According to patent publication US20230250168A1 (MABWELL SHANGHAI BIOSCIENCE, published 2023):
Changes are numbered by the printed parent chain.

B1: 52E22-hz12 (antibody, human IgG1, V domains shown)
VH: QIQLVQSGSELKKPGASVKVSCKASGYTLTNYGMNWVRQAPGQGLEWMGWIRPNTGEPTYAEDFKGRFVFSLDTSVATAYLQITSLKAEDTAVYYCARLYRGNTLDNWGQGTLVTVSS
VL: DIVMTQSPDSLAVSLGERATINCKSSQNLLSSGNQRNYLTWYQQKPGQPPKLLIYWASTRESGVPDRFSGSGSGTDFTLTISSLQAEDLAVYYCQQGYSFPFTFGQGTKLEIK
notes: Humanized; also called 52E22-hz12 IgG; 52E22-12 IgG
B2: murine antibody 48G12 (antibody, V domains shown)
VH: EVQLRQSGPELVKPGASVKMSCKASGYTFTTYIINWVKQKPGQGLEWIGYINPYNDDTRYNERVKGKATLTSDKSSSTAYMELSSLTSEDSAVYYCARFYFGNSFTYWGQGTLVTVSA
VL: DIVMTQSPSSLPVTVGERVTMTCKSSQGLFNSGNQRNYLTWYQQKPGQPPKLLIYWASTRESGVPDRFTGSGSGTDFTLTISSVQAEDLAIYYCQNNYIYPLTFGAGTKLELK
notes: Mouse hybridoma antibody (supernatant)
B3: murine antibody 50C14 (antibody, V domains shown)
VH: B2 VH with D57G, Y100H
VL: B2 VL with V15T, R18K, S32N, T69I, Y100F
notes: as for B2
B4: murine antibody 43L6 (antibody, V domains shown)
VH: QVQLKESGPDLVAPSQSLSLTCSVSGFSLTSYGIHWVRQPPGKGLEWLVVIWSDGRTTYNSGLKSRLSISKDNSKSQVLLKMNSLRTDDTAIYYCVRHPAFGPHAMDYWGQGTSVTVSS
VL: DIVMTQAAPSVPVTPGESVSISCRSSKSLLNSNGNTYLYWFLQRPGQSPQLLIYRMSNLASGVPDRFSGSGSGTDFTLRISRVEAGDVGVYYCMQYLEYPVTFGAGTKLELK
notes: as for B2
B5: murine antibody 46J05 (antibody, V domains shown)
VH: DVQLVESGGGLVQPGGSRKLSCAASGFTFSRFGMHWVRQAPKKGLEWVAYISSGSNTIYYADTVKGRFTISRDNPKNTLFLQTTSLRSEDTAIYYCGRLGFYGNSFDHWGQGTLVTVSA
VL: NILMTQSPSSLTVTAGEKVTMNCKSSQSLLNGGNQRNYLTWYQQKAGQPPKLLIYWASTRESGVPDRFTGGGSGTDFTLTISSVQAEDLALYYCQNSYYYPLTFGAGTKLELK
notes: as for B2
B6: murine antibody 20L17 (antibody, V domains shown)
VH: DVQLVESGGGLVQPGGSRKLSCAASGFTFSSFGMHWVRQAPEKGLEWVAYISSGSSTIYYPDTVKGRFTVSRDNPKNTLFLQMTSLRSEDTAMYYCVRLGPRGNVMDHWGQGTSVTVSS
VL: DIVMTQSPSSLTVTAGEKVTMSCKSSQSLLNSGNQRNYLTWYQQKPGQPPKLLIYWASTRESGVPDRFTGSGSGTDFTLTISSVQAEDLAVYYCQNVYFYPLTFGTGTKLELR
notes: as for B2
B7: 52E22-xiIgG (antibody, V domains shown)
VH: QIQLVQSGPELKKPGETVKISCKASGYTLTNYGMNWVRQAPGKGLKWMGWIRPNTGEPTYAEDFKGRFVFSLETSAATAYLQITNLKSEDTSTYFCARLYRGNTLDNWGQGTSVIVSS
VL: DIVMTQSPSSLTVTTGEKVTMSCKSSQNLLNSGNQRNYLTWYQQKPGQSPKLLIYWASTRESGVPYRFTGSGSGTDFTLTISSVQTDDLAIYYCQNGYSFPFTFGSGTKLEIKR
notes: Murine variable regions on human IgG1 / kappa constant regions; also called 52E22 chimeric antibody
B8: 52E22-hz11 (antibody, human IgG1, V domains shown)
VH: B1 VH
VL: DIVMTQSPDSLAVSLGERATINCKSSQNLLNSGNQRNYLTWYQQKPGQPPKLLIYWASTRESGVPDRFSGSGSGTDFTLTISSLQAEDLAVYYCQNGYSFPFTFGQGTKLEIKR
notes: Only the position of the reverse mutation is printed; copies: 2 + 2
B9: 52E22-hz00 (antibody, human IgG1, V domains shown)
VH: B1 VH with I2V, A77S, T84C
VL: B1 VL with S31N, L89V, Q96N
notes: Humanized (direct CDR graft)
B10: 8K13-xiIgG (antibody, V domains shown)
VH: QVHLQQSGAELVRPGSSVKISCKASGYAFSNYWMNWVRQRPGQGLEWIGQIYPGNGDTKYSGKFNSKDTLTADKSSNTAYMQLNSLTSEDSAVYFCARFYYGNVMDYWGQGTSVTVSS
VL: DIVLTQSPSSLTVTAGEKVTMSCKSSQTLLNGGNQKNYLTWYQQKSGQPPKLLIYWASTRESGVPDRFTGSGSGTDFTLTISSVQAEDLAVYYCQNGYSYPLTFGVGTKLELKR
notes: Murine variable regions on human IgG1 / kappa constant regions; also called 8K13 chimeric antibody
B11: 8K13-hz00 (antibody, human IgG1, V domains shown)
VH: QVQLVQSGAEVKKPGSSVKVSCKASGYAFSNYWMNWVRQAPGQGLEWMGQIYPGNGDTKYSGKFNSRVTITADESTSTAYMELSSLRSEDTAVYYCARFYYGNVMDYWGQGTLVTVSS
VL: B1 VL with N28T, S31N, S32G, R36K, L89V, Q96N, F100Y, F102L
notes: Humanized (direct CDR graft)
B12: 8K13-hz11 (antibody, V domains shown)
VH: B11 VH with E74K, S77N
VL: B1 VL with M4L, N28T, S31N, S32G, R36K, Q96N, F100Y, F102L
B13: 43B5-xiIgG (antibody, V domains shown)
VH: DVQLQESGPDLVKPSQSLSLTCTVSGYSISGAYNWHWIRQFPGNKLEWLAYMQYSGSSNYNPSFKSRISISRDTSKNQFFLQLKSVTTEDTATYYCARMYNGNSFLYWGQGTLVTVSA
VL: DIVMTQSPSSLTVTAGEKVTMNCKSSQSLFNSGNQKNYLTWYQQKPGQPPRLLIYWASTRESGVPDRFTGSGSGTDFTLTISSVQAEDLSLYYCQNSYSYPLTFGAGTKLELKR
notes: murine variable regions on human IgG1 / kappa constant regions; also called 43B5 chimeric antibody
B14: 46J05-xiIgG (antibody, V domains shown)
VH: B5 VH
VL: B13 VL with D1N, V3L, F30L, S32G, K36R, P46A, R51K, S71G, S90A, S99Y
notes: murine variable regions on human IgG1 / kappa constant regions; also called 46J05 chimeric antibody

molecular target: T1, human CLDN18.2 expressed on cell surfaces (human, UniProt P56856-2 1-261); assay: cell-based or functional assay

| Binder | ADCC reporter EC50 (Jurkat NFAT-luciferase effector cells), CHOK1 target cells [nM] |
| --- | --- |
| B1 | 0.567 |

molecular target: T1, human CLDN18.2 expressed on cell …; assay: FACS of hybridoma supernatants on CHOK1 cells
Procedure: Balb/c mice were immunized with CHOK1 cells stably expressing human CLDN18.2 protein on cell surfaces. One month later, sera from the mice were analyzed by flow cytometry (FACS), and spleens were taken from mice having high antibody titers in sera. The spleen cells isolated by standard methods were fused with myeloma cells P3X63Ag8.653 using PEG or electrofusion methods. The fused hybridoma cells were seeded in 384 well plates, and after 10-14 days of culture, supernatants obtained were analyzed by FACS for antibody secretion by the hybridoma cells. Several clones were obtained that were able to bind to CHOK1 cells stably expressing human CLDN18.2 protein on cell surfaces and were not able to bind to CHOK1 cells stably expressing human CLDN18.1 protein on cell surfaces. Single cells of the obtained clones were obtained by Limiting Dilution, and each of the monoclonal hybridoma cell clones obtained after being diluted three times secreted only one antibody.

| Binder | binding result |
| --- | --- |
| B2 | binds |
| B3 | binds |
| B4 | binds |
| B5 | binds |
| B6 | binds |

molecular target: T1, human CLDN18.2 expressed on cell …; assay: cell-based or functional assay; remark: another data set of the same source

| Binder | CDC EC50, CHOK1 cells stably expressing human CLDN18.2 (CCK-8) [nM] |
| --- | --- |
| B1 | 2.08 |

molecular target: T2, antigen human CLDN18.2, His-tagged (human, UniProt P56856-2 1-261, limits assumed); assay: BLI (Fortebio), His-tagged antigen on NTA probe; ratio to 52E22-xiIgG
T2 construct: Recombinant antigen used in the Fortebio assay (His-tagged, captured on NTA probe); also called His-tagged antigen; not shown: His tag
Procedure: (§1) The binding kinetic parameters of the chimeric antibodies and the humanized antibodies thereof to the antigen human CLDN18.2 were analyzed by a Fortebio (BLITZ pro1.1.0.28) instrument. Before performing the assay, an NTA bioprobe was soaked in PBS for 10 min, and the probe was then placed in PBS containing 100 nM antigen for 300 s to capture the His-tagged antigen. The probe was further subjected to a binding reaction with 100 nM antibody for a binding time of 400 s, and the probe was then transferred to PBS and subjected to a dissociation reaction for 600 s. When the assay was finished, data from which the response value of a blank control had been deducted were fitted to a 1:1 Langmuir binding model using software, and then the kinetic constants for antigen-antibody binding were calculated.

| Binder | Koff/Koff(Xi-IgG) |
| --- | --- |
| B7 | 1 |
| B8 | 5.55 |
| B9 | 1.72 |
| B1 | 2.21 |

molecular target: T2, antigen human CLDN18.2, His-tagged; assay: BLI (Fortebio), His-tagged antigen on NTA probe, 100 nM antibody, 1:1 fit
Procedure: as §1

| Binder | Kd [nM] | Response | koff [s⁻¹] | kon [M⁻¹ s⁻¹] |
| --- | --- | --- | --- | --- |
| B7 | 0.0996 | 0.223 | 3.55e-05 | 357000 |
| B8 | 0.542 | 0.238 | 0.000197 | 363000 |
| B10 | 0.382 | 0.134 | 0.000114 | 298000 |
| B11 | 0.744 | 0.133 | 0.000198 | 266000 |
| B12 | 0.297 | 0.139 | 6.73e-05 | 227000 |
| B9 | 0.309 | 0.188 | 6.11e-05 | 198000 |
| B1 | 0.36 | 0.226 | 7.83e-05 | 218000 |

molecular target: T2, antigen human CLDN18.2, His-tagged; assay: SPR (BIAcore), antibody captured by anti-human Fc, antigen as analyte
Procedure: Referring to the instructions provided in the Human Antibody Capture Kit (cat No. BR-1008-39, Lot 10261753) from GE Healthcare, the analytical channel and the control sample channel on a CM5 sensor chip were first saturated and coupled with the maximum amount of anti-human Fc antibody, then buffers containing anti-human CLDN18.2 chimeric antibodies, humanized antibodies or a control antibody IMAB362 at 7.5 μg/ml were allowed to flow through the analytical channel and uniformly distribute. Finally, antigen samples diluted in gradient (the initial concentration was 20 nM and diluted by 1:3 to get 8 concentrations, and the concentration 0.741 nM was set to be repeated) were allowed to flow through both the analytical channel and the sample channel, and the photoreactions upon the binding of antibody to antigen were measured. Subsequently, the association constant Kon and dissociation constant Koff and affinity constant KD of each antibody were finally obtained by instrument software fitting analysis.

| Binder | Kd [nM] | koff [s⁻¹] | kon [M⁻¹ s⁻¹] |
| --- | --- | --- | --- |
| B7 | 1.11 | 0.000545 | 490000 |
| B10 | 6.99 | 0.000573 | 81900 |
| B1 | 1.18 | 0.000172 | 146000 |

molecular target: T1, human CLDN18.2 expressed on cell …; assay: flow cytometry on CHOK1 cells expressing human CLDN18.2, goat anti-human IgG secondary, normalised MFI
Procedure: The chimeric anti-human CLDN18.2 antibodies were diluted 2-fold in gradient from an initial concentration of 100 nM and solutions of each antibody of 16 concentrations were obtained. 10 μl of the solutions of each antibody of each concentration was added to a 384-well plate. CHOK1 cells expressing CLDN18.2 on the cell surface were collected by centrifugation for 5 min at 100 g at room temperature, and the cells were washed with PBS containing 0.5% BSA once and then were centrifuged for 5 min at 100 g at room temperature. The cells were resuspended at a density of about 2×10⁶ cells/ml, and 10 μl was added to each well of the 384-well plate to which the antibody had been added. After incubation for 1 hour at 4° C., fluorescently labeled secondary goat anti-human IgG antibody was added. After continued incubation for 1 hour at 4° C., the mean fluorescence readings of the cell populations were analyzed by a flow cytometer.

| Binder | EC50 (read off the curve) [nM] | binding result |
| --- | --- | --- |
| B13 | ~1 | – |
| B14 | – | binds |

molecular target: T2, antigen human CLDN18.2, His-tagged; assay: BLI (Fortebio), His-tagged antigen on NTA probe; ratio to 8K13-xiIgG
Procedure: as §1

| Binder | Koff/Koff(Xi-IgG) |
| --- | --- |
| B10 | 1 |
| B11 | 1.74 |
| B12 | 0.59 |
